Measurements published in patent publication US20250236673A1 (Ablynx, published 2025).
Values joined by “and” are separate entries in the source; they are usually repeats but may differ in a detail not shown here. Equal values may be shown once.

What was measured:
soluble human TNFα = soluble human TNFα (human, UniProt P01375 77-233); assay: cell-based or functional assay
human serum albumin [1] = target: T1, human serum albumin (human, UniProt P02768 25-609); assay: SPR Biacore 8K+, HSA amine-coupled on C1 chip, ISVD analyte, 1:1 fit
T1 construct: Immobilised by amine coupling on a C1 chip; also called HSA

human serum albumin [2] = target: T1, human serum albumin; assay: SPR on HSA (Example 2; method not restated, as Example 1)

soluble human TNFα, sequence (P01375 77-233 limits assumed): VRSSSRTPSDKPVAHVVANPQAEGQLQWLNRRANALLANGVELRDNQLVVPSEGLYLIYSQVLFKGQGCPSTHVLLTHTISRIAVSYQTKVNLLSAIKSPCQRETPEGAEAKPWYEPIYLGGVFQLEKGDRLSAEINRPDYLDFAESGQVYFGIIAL
T1 sequence (P02768 25-609 limits assumed): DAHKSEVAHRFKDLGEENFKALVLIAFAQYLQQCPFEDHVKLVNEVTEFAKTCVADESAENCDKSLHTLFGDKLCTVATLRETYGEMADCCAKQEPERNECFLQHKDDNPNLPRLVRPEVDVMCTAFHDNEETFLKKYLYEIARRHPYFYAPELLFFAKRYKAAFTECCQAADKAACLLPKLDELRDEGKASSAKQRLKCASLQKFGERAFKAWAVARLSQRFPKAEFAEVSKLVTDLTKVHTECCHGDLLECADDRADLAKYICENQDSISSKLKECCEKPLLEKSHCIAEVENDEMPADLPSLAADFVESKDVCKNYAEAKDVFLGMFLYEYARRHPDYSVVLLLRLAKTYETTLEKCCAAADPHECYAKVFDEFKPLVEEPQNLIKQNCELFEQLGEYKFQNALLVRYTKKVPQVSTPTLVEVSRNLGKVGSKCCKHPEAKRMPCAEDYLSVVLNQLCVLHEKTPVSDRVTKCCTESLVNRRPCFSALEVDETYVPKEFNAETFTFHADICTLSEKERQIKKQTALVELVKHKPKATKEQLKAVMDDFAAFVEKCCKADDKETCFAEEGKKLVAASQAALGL

Row | IC50, inhibition of human TNFα-induced NFkB activation (HEK293_NFkB-NLucP Nano luciferase reporter) (soluble human TNFα) | Kd (human serum albumin [1]) | koff (human serum albumin [1]) | kon (human serum albumin [1]) | Binder | also measured
1 | 6.43e-11 M (inferred; column head prints 'Average of ka (1/Ms)') | – | – | – | T031200262 (VHH) VHH: DVQLVESGGGVVQPGGSLKLSCTASGFTFSTADMGWFRQAPGKGKEFVARISGIDGTTYYDEPVKGRFTISRDKSKNTVYLQMNSLKPEDTALYYCRSPRYADQWSAYDYWGKGTLVTVSS | –
2 | 1.91e-10 M (inferred; column head prints 'Average of ka (1/Ms)') | – | – | – | T031200261 (VHH) VHH: DVQLVESGGGVVQPGGSLKLSCTASGFTFSTADMGWFRQAPGKGREFVARISGIDGTTYYDEPVKGRFTISKDKSKNTVYLQMNSLKPEDTALYYCRSPRYADQWSAYDYWGKGTLVTVSS | –
3 | 1.92e-10 M (inferred; column head prints 'Average of ka (1/Ms)') | – | – | – | T031200263 (VHH) VHH: DVQLVESGGGVVQPGGSLKLSCTASGFTFSTADMGWFRQAPGKGKEFVARISGIDGTTYYDEPVKGRFTISKDKSKNTVYLQMNSLKPEDTALYYCRSPRYADQWSAYDYWGKGTLVTVSS | –
4 | – | 1.31 nM | 0.00105 s⁻¹ | 799000 M⁻¹ s⁻¹ | T028501816 (VHH, K75A vs precursor T028501805; also called HSA006A06(K75A, K83R)) VHH: EVQLVESGGGVVQPGGSLRLSCAASGFTFRSFGMSWVRQAPGKGPEWVSSISGSGSDTLYADSVKGRFTISRDNSANTLYLQMNSLRPEDTALYYCTIGGSLSRSSQGTLVTVSS | –
5 | – | 1.11 nM | 0.00112 s⁻¹ | 1.01e+06 M⁻¹ s⁻¹ | T028501834 (VHH, K64R vs precursor T028501805; also called HSA006A06(K64R, K83R)) VHH: EVQLVESGGGVVQPGGSLRLSCAASGFTFRSFGMSWVRQAPGKGPEWVSSISGSGSDTLYADSVRGRFTISRDNSKNTLYLQMNSLRPEDTALYYCTIGGSLSRSSQGTLVTVSS | –
6 | – | 1.29 nM | 0.000906 s⁻¹ | 703000 M⁻¹ s⁻¹ | T028501833 (VHH, K43R vs precursor T028501805; also called HSA006A06(K43R, K83R)) VHH: EVQLVESGGGVVQPGGSLRLSCAASGFTFRSFGMSWVRQAPGRGPEWVSSISGSGSDTLYADSVKGRFTISRDNSKNTLYLQMNSLRPEDTALYYCTIGGSLSRSSQGTLVTVSS | –

Continued, binder first:

Row | Binder | IC50, inhibition of human TNFα-induced NFkB activation (HEK293_NFkB-NLucP Nano luciferase reporter) (soluble human TNFα) | Kd (human serum albumin [1]) | koff (human serum albumin [1]) | kon (human serum albumin [1]) | also measured
7 | T031200256 (VHH) VHH: DVQLVESGGGVVQPGGSLRLSCTASGFTFSTADMGWFRQAPGKGREFVARISGIDGTTYYDEPVKGRFTISRDKSKNTVYLQMNSLKPEDTALYYCRSPRYADQWSAYDYWGQGTLVTVSS | 4.3e-11 M (inferred; column head prints 'Average of ka (1/Ms)') | – | – | – | –
8 | A016600058 (VHH) VHH: DVQLVESGGGVVQPGGSLRLSCTASGFTFSTADMGWFRQAPGKGREFVARISGIDGTTYYDEPVKGRFTISRDNSKNTVYLQMNSLRPEDTALYYCRSPRYADQWSAYDYWGQGTLVTVSS | 3.86e-11 M (inferred; column head prints 'Average of ka (1/Ms)') and 2.97e-11 M (inferred; column head prints 'Average of ka (1/Ms)') | – | – | – | –
9 | T031200257 (VHH) VHH: DVQLVESGGGVVQPGGSLKLSCTASGFTFSTADMGWFRQAPGKGREFVARISGIDGTTYYDEPVKGRFTISRDKSKNTVYLQMNSLKPEDTALYYCRSPRYADQWSAYDYWGQGTLVTVSS | 4.93e-11 M (inferred; column head prints 'Average of ka (1/Ms)') | – | – | – | –
10 | T039400046 (VHH, Single lysine at the C-terminus; also called HIS6-ENLYFQS-5GS-HSA006A06(K43R, K64R, K75R, K83R)-K) VHH: EVQLVESGGGVVQPGGSLRLSCAASGFTFRSFGMSWVRQAPGRGPEWVSSISGSGSDTLYADSVRGRFTISRDNSRNTLYLQMNSLRPEDTALYYCTIGGSLSRSSQGTLVTVSS | – | – | – | – | Kd (human serum albumin [2]): 5.95 nM; koff (human serum albumin [2]): 0.00224 s⁻¹; kon (human serum albumin [2]): 377000 M⁻¹ s⁻¹
11 | T039400043 (VHH, Single lysine at 43; also called HIS6-ENLYFQS-5GS-HSA006A06(K64R, K75R, K83R)) VHH: EVQLVESGGGVVQPGGSLRLSCAASGFTFRSFGMSWVRQAPGKGPEWVSSISGSGSDTLYADSVRGRFTISRDNSRNTLYLQMNSLRPEDTALYYCTIGGSLSRSSQGTLVTVSS | – | – | – | – | Kd (human serum albumin [2]): 6.42 nM; koff (human serum albumin [2]): 0.00226 s⁻¹; kon (human serum albumin [2]): 353000 M⁻¹ s⁻¹
12 | T039400039 (VHH, Single lysine at 75; also called HIS6-ENLYFQS-5GS-HSA006A06(K43R, K64R, K83R)) VHH: EVQLVESGGGVVQPGGSLRLSCAASGFTFRSFGMSWVRQAPGRGPEWVSSISGSGSDTLYADSVRGRFTISRDNSKNTLYLQMNSLRPEDTALYYCTIGGSLSRSSQGTLVTVSS | – | – | – | – | Kd (human serum albumin [2]): 7.51 nM; koff (human serum albumin [2]): 0.00226 s⁻¹; kon (human serum albumin [2]): 301000 M⁻¹ s⁻¹
13 | T028501836 (VHH) VHH: EVQLVESGGGVVQPGGSLRLSCAASGFTFRSFGMSWVRQAPGKGPEWVSSISGSGSDTLYADSVKGRFTISRDNSHNTLYLQMNSLRPEDTALYYCTIGGSLSRSSQGTLVTVSS | – | 1.35 nM | 0.00114 s⁻¹ | 839000 M⁻¹ s⁻¹ | –
